Experimental findings from the DeepSol protein solubility set are described below.

This data set is described as follows: soluble on expression in E. coli; label from the status in PepcDB or PDB records.
With “MSGLTKIKPPKKARIGLYSAGLNTYWGQFEGLYDCLMGYNRFIEKRLSEWGEVFNFGMVDTEEKGREAGEFFNKNNVDIVFSHAATYYASATVLPVHQINNAPVIILNLQPTAEMAYDTTGTDRWLAQCVGCSIPEISNAFNRAGITFRAVNGLLGLTETPDFAKADEVTCERPEAVRAWKQIEEWCRAAAVKRNLQWARFGFLGGYYSGMLDMYSDFTMLQAQTGIDIEVLEMSDLDAYLKTVTEEEVQEKLKEIQDFFEISGDSPSDPIAKKPTEEQLTWSAKVAIAQEKMVRERNLDSVSYYYHGRDDYLEEVQSGFIVGFSLLNAQGIACAGEGDIKTALAMKIADICGTGGSFCEIVAADFNRDTMILGHDGPFHFAISKGKPILRGMGVYHGKRGSGVSVEAKVRPGAVTTLGVTQTGDGRLKFNISEGEAIDAPILLNGNTSTHIRFSQKPAEYMDRWFQEAPTHHLALSVGHNAELFKKIAELMDIPYAIY”, the “soluble on expression in E. coli” value is “soluble”.
With “MGSDKIHHHHHHMFDWNDLRFFLELQRSGRLLTAAKRLNTTHSTVARHIESIEQSLGTALFVQHAQGYELTPSGQALLKHAEAMENVALLAQEEITQAITPLGKIRLGVTEGIGIMFFTPRMNALFERYPGLEVELVAVPRFVSILNREAEISIHLERPNADLLITRKLTDYRLALYASQAYLDRAPPLRHREDLARHSWIGYVDDLLFSQELLFLNSFCRVPNVVFRSTSVIAQQAAARAGLGIAVLPNYMARHDPTLVRVLPGETIQRSYWICTRRELHKSVRLRVVWDYLLALCAAEQSELLAE”, the “soluble on expression in E. coli” value is “not soluble”.
The result for “MPESSRDKGNAAISGNRSVLSIASPTKLNILSSDWSRNQGKVSKNSLKRSSSLNIRNSKRPSLQASANSIYSRPKITIGAPPLIRRDSSFFKDEFDAKKDKATFSAYSSRSYPTIGSESVVSQTSLSQPTTSREVDEQFTVAADRYIPILQGASQNKVDPETLHEALPPPNASPISHLRAQTKIVFKQNVAEACGLDMNKRILQYMPEPPKCSSLRQKSYIMKKRTHYSYQQEQKIPDLIKLRKINTNPERILDAPGFQDDFYLNLLSWSKKNVLAIALDTALYLWNATTGDVSLLTDFENTTICSVTWSDDDCHISIGKEDGNTEIWDVETMSLIRTMRSGLGVRIGSLSWLDTLIATGSRSGEIQINDVRIKQHIVSTWAEHTGEVCGLSYKSDGLQLASGGNDNTVMIWDTRTSLPQFSKKTHTAAVKALSWCPYSPNILASGGGQTDKHIHFWNSITGARVGSINTGSQVSSLHWGQSHTSTNGGMMNKEIVATGGNPENAISVYNYETKFKVAEVVHAHEARICCSQLSPDGTTLATVGGDENLKFYKIFDPRCTGRSREDGLMDGMLGLIGKEGCRTNDKENRSKNSSEIHTRRPSSTSQYLIR” reads “not soluble”; that for “MGSDKIHHHHHHMHQDTVRATAFAMPLTSPAYPVGPYRFRNREYLIITYRTDPKKLRSLVPEPLELSEPLVKFEFIRMPDSTGFGNYTESGQVIPVTFRGRKGSYTHCMFLNDHPPIAGGRELWGFPKKLATPTLRTETDTLVGTLDYGPVRVATATMGYKHEAADLSAVRSSLAEPNFLLKIIPHVDGTPRICELVEYHLEDVDLRGAWAGPASLNLWSHALAPVAELPVLEVVSAMHIVADLTLALGKVVHDYLPKSEPRDLKGRSHAFAE”, “not soluble”; that for “MMRLANGIVLDKDTTFGELKFSALRREVRIQNEDGSVSDEIKERTYDLKSKGQGRMIQVSIPASVPLKEFDYNARVELINPIADTVATATYQGADVDWYIKADDIVLTKDSLEHHHHHH”, “not soluble”.
The result for “MTQIVVGENEHIESALRRFKREVSKAGIFQDMRKHRHFETPIEKSKRKKLALHKQSKRRFRTLEHHHHHH” reads “not soluble”; that for “MHSFPPLLLLLFWGVVSHSFPATLETQEQDVDLVQKYLEKYYNLKNDGRQVEKRRNSGPVVEKLKQMQEFFGLKVTGKPDAETLKVMKQPRCGVPDVAQFVLTEGNPRWEQTHLTYRIENYTPDLPRADVDHAIEKAFQLWSNVTPLTFTKVSEGQADIMISFVRGDHRDNSPFDGPGGNLAHAFQPGPGIGGDAHFDEDERWTNNFREYNLHRVAAHELGHSLGLSHSTDIGALMYPSYTFSGDVQLAQDDIDGIQAIYGRSQNPVQPIGPQTPKACDSKLTFDAITTIRGEVMFFKDRFYMRTNPFYPEVELNFISVFWPQLPNGLEAAYEFADRDEVRFFKGNKYWAVQGQNVLHGYPKDIYSSFGFPRTVKHIDAALSEENTGKTYFFVANKYWRYDEYKRSMDPGYPKMIAHDFPGIGHKVDAVFMKDGFFYFFHGTRQYKFDPKTKRILTLQKANSWFNCRKN”, “soluble”; that for “LKQLLALDKNIERMECFDISHTQGEATVASCVVFDTEGPRPSEYRRFNIEGITPGDDYAAMEQAVTRRFKRLIDVQLLPDVLIIDGGKGQVSIVKRVLTSLGVEDITLLGVSKGPSRKAGWEKLILVNENREFVLPEDSKALHLLQHIRDEAHRFAI”, “not soluble”.
As for “MSLEEPRGINYVELSTDDLGTLTRQMHQLGFQFIGYHRSKPHVQLWLRGQARIIVSEVTEEAGTTSAPVNGTFLRGIGFEVTDSQSAMDRAALLHAEEVPRDQAHDDEVLRGVFAPDGSEVFFHQFDAATPAWIKEFGHDHDEQVSHIDHVNLAQPSNHYDEAVLFYTSLLALHAQSSQDVPSPSGLVRSQVMSSTDGSVRMPLNVSPQPNAEAVAGRGIGSVVEAYPEHVAVACEDIFQAAATALSRGLDFLPVPQNYYEDLDSRFDLDLEFLQRLQENHVLYDRDEHGEFLHFYTSTIGSVFFEMIERRGDYLGFGAPDAPVRLAAQHRKNSQREGHHHHHH”, the “soluble on expression in E. coli” value is “not soluble”.
As for “MAHHHHHHMSITAGTLPPVKGTSVKKSPRKGRPADSMGNGTGAAADPHCYHKCRCYGHDDTLPNYKLLTIPRTNNYYAATGGCPCVPRVAAHPGSWRLKEGQLRSSTYRCGTGCIKKSAALTLGCCHHSGDQYGWRRGPHTVLDKNTAATGKCDTFGNLAFKSTSRAYCAVGGDDLSDVSSASPQKLEDLEALILEEHQQRMRVEEDVDELAGIQRNGTADWYKKIHHDAERRRLLAQISEVELQDLLRDVKNIVDRPLNQTNMDLLRRILHRQEHLQRQREYYAAQELE”, the entry is “not soluble”.
As for “MNVVKFGGSSLASAPQLQKVLQIVKEEPRRTFVVVSAPGKRTPQDIKVTDLLIQYYQRYLNNEEIESTISAIIRRYEDLFDELHLDKAVLADIAISIRQLATLPKENNAFLFDYFLASGEDNNAKVVASFFKQNGLDARYISPKELGLLVTPEPGNARILPKALEKISVYRETQQILVIPGFFGYTEAGEICTFSRGGSDITGSIVAAGVQADLYENFTDVDGIYVAHPGIIEQPQTIQELTYREMRELAYAGFAVLHDEALMPAYRANIPVVIKNTNNPHHPGTLITTSRKVKHAPVVGIASDQGFASIYISKYLMNRELGFGRRLLEVLEKLALSYEHMPSGIDDITIVLREDQLTTEIENRLMAQLQEVLAPDELRITHHLSMIMIVGEGMRQRIGVTAESTMALAKEKINLEMINQGSSEVSIMFGIKKEQEEKAIKALYRTFFHD”, the entry is “not soluble”.
As for “MPNIKIFSGSSHQDLSQKIADRLGLELGKVVTKKFSNQETCVEIGESVRGEDVYIVQSGCGEINDNLMELLIMINACKIASASRVTAVIPCFPYARQDKKDKSRAPISAKLVANMLSVAGADHIITMDLHASQIQGFFDIPVDNLYAEPAVLKWIRENISEWRNCTIVSPDAGGAKRVTSIADRLNVDFALIHKERKKANEVDRMVLVGDVKDRVAILVDDMADTCGTICHAADKLLSAGATRVYAILTHGIFSGPAISRINNACFEAVVVTNTIPQEDKMKHCSKIQVIDISMILAEAIRRTHNGESVSYLFSHVPLLEHHHHHH”, the entry is “soluble”.
As for “MIVSSLRGGLGNQMFIYAMVKAMALRNNVPFAFNLTTDFANDEVYKRKLLLSYFALDLPENKKLTFDFSYGNYYRRLSRNLGCHILHPSYRYICEERPPHFESRLISSKITNAFLEGYWQSEKYFLDYKQEIKEDFVIQKKLEYTSYLELEEIKLLDKNAIMIGVRRYQESDVAPGGVLEDDYYKCAMDIMASKVTSPVFFCFSQDLEWVEKHLAGKYPVRLISKKEDDSGTIDDMFLMMHFRNYIISNSSFYWWGAWLSKYDDKLVIAPGNFINKDSVPESWFKLNVRMAGDPLEHHHHHH”, the “soluble on expression in E. coli” value is on record as “not soluble”.
“HGPEGTVEIETVKLARSVFSKLHEICCSWVKDFPLRRRPQLYYETSIHAIKNMRRKMEDKHVCIPDFNMLFNLEDQEEQAYFAVFDGHGGVDAAIYASIHLHVNLVRQEMFPHDPAEALCRAFRVTDERFVQKAARESLRCGTTGVVTFIRGNMLHVAWVGDSQVMLVRKGQAVELMKPHKPDREDEKQRIEALGGCVVWFGAWRVNGSLSVSRAIGDAEHKPYICGDADSASTVLDGTEDYLILACDGFYDTVNPDEAVKVVSDHLKENNGDSSMVAHKLVASARDAGSSDNITVIVVFLRDMNKVRASSPSPL”: the “soluble on expression in E. coli” value is on record as “soluble”.
In the case of “MKMTSRKLSDILKKRLQNDSWSFHFDREKDSLRIEDKNTGKGITLELPGIIAKWEQKKDDAIDEVVYYTEEALNAMKGQSQEMEGRESLIYPVIRSTSFPEKSSAGVPLVFDGHTAETRIYYALDLGNTYRLIDEKMLEKEGWTKERIRETASFNLRSLQTVVKEDEVAGNHFYFFRANDGYDASRVLNESILAEYEKNAEGTLAVSIPHQDVLIIADIRNNAGYDILGQMSMSFFANGTVPITALSFLYEDGKLEPIFILAKNRPKK”, the “soluble on expression in E. coli” value is recorded as “not soluble”.
In the case of “MSLTKDDQKELGKTLWAIADQLRGSMNADDFRDYMLSFLFLRYLSDNYEAAAKKELGSDYPDAKTIGNSDKTPLSVWYASNPGDVAAFEQQMRRKAHYVIKPKYLWGNIVNLAKKQNHDLLDTLQQGFKHIEEDSFESEFQGLFSEINLASDKLGRKYDDRNAKLCSIISEIARGMALSAKTDSLGDAYEYLIGQFAAGSGKKAGEFYTPQEISNILSAIVTLDSQEPKTGPRGKLDSVFDFACGSGSLLLNIRNRMTNSGGSIGKIYGQEYNVTTYNLARMNMLLHGVKDTEFEIYHGDTLKNDWDWLRETNPAKKPRFDAVVANPPFSYRWEPGEAMAQDARFKNHGVAPKSAADFAFLLHGLQYLKDDGVMAIILPHGVLFRGGKEADIRRKLLDDGHIDTVIGLPANLFYSTGIPVCILVLKKCKKPDDVLFINAAGHFAKGKRQNQLTDEHIQRIVNTYQNRNKQDRYSRCVSMKEIADKDYNLNISRYVSTAEADKEIVLEAVHADLTAIESRLEESKKRHNAFLVELGLKPLPEGHHHHHH”, the “soluble on expression in E. coli” value was “soluble”.
As for “MKMLVGKIPSELLAKILEKLKPGDKVIVGPKVGIDATAIDFGDYVLVASTDPITGTEEKIGFYAVNINANDVATFGARPKWFLVTILLPEGSEFNDVITIMDEVREVAEGMGISIVGGHTEVTPGLKKPIVVGTMLGEVEKENLVVPNPRPGDAIILTKGAGIEGTSIIAHEREEELKGVFGSNFVERAKAFINEISIVREALLSREFATAMHDPTEGGIANGLHEMADINGLGFRIFANKVIIREETRKICHFYDLDPLALISSGALLISTPRDHAKFLIERLLSHGIQASIIGEFLAEKKRVIIENGAERPLKRPESDELWKVV”, the entry is “soluble”.
The result for “GAMAPHFKEELRNLNVRYQSNATLVCKVTGHPKPIVKWYRQGKEIIADGLKYRIQEFKGGYHQLIIASVTDDDATVYQVRATNQGGSVSGTASLEVEVPAKIHLPKTLEGMGAVHALRGEVVSIKIPFSGKPDPVITWQKGQDLIDNNGHYQVIVTRSFTSLVFPNGVERKDAGFYVVCAKNRFGIDQKTVELDVADVPDPPRGVKVSDVSRDSVNLTWTEPASDGGSKITNYIVEKCATTAERWLRVGQARETRYTVINLFGKTSYQFRVIAENKFGLSKPSEPSEPTITKEDKTRAMNYDEEV” reads “soluble”.
